System: MS2 coat protein
Experiment: apparent KD of MS2 coat protein; designed switch direction (-1 OFF switch, 1 ON switch): -1; higher = weaker reporter binding
Method in brief: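 On Illumina chips, designed RNA switches with common flanks were made by stalled E. coli RNA polymerase. Titrations with SNAP-549-labelled MS2 coat protein, doubling from 0.7 or 1.5 nM to 3 µM, were done with no input, with 200 uM small-molecule ligand, or with an oligonucleotide input. Apparent KD is the median per design over clusters, from curve fits of normalised cluster fluorescence.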

[1] = Eterna round: R95, input ligand: microRNA oligo, concentration not stated
[2] = input ligand: microRNA oligo, concentration not stated

Q: How did the “apparent KD of MS2 coat protein” value (Eterna round: R95, input ligand: FMN 200 uM) turn out when “UCGAAGCUAGGAUAUACAUGAGGAUCACCCAUGUGAGUAAUAACUUGGAGAUACCUCCGUAGAAGGAGCACAAA [Beatdienat] (puzzle: Exclusion 3)” was run?
A: 310 nM

Q: What about the “apparent KD of MS2 coat protein” value [1] of the same sequence?
A: 107 nM

Q: What about the “apparent KD of MS2 coat protein” value (Eterna round: R95, input ligand: none) of the same sequence?
A: 125 nM

Q: How did the “apparent KD of MS2 coat protein” value (input ligand: FMN 200 uM) turn out when “UCGCCGCCCUUGGGCGGCGACAUGAGGAUCACCCAUGUCAAGCUUUUUGCUCGUUUUAUUGCCGGCCUUGGCCGGCU [Olib_2] (Eterna round: R97, puzzle: Sensor, turn-off variant 1)” was run?
A: 28.3 nM

Q: What about the “apparent KD of MS2 coat protein” value (input ligand: none) of the same sequence?
A: 33.2 nM

Q: What does the source list for “UCGGAUUCAGGAUAUUGCACAUGUGACAUGAGGAUCACCCAUGUUCCCUUAUUUGGUCACCAAGAAGGGAGUUUAU [Eternabot (L2) Solution 34] (Eterna round: R97, puzzle: Exclusion 5)”?
A: apparent KD of MS2 coat protein (input ligand: FMN 200 uM): 157 nM; apparent KD of MS2 coat protein (input ligand: none): 152 nM

Q: With “UCGGCGCGAGGAUAUACGUUUGCGCUUUUUCGUUUUUGUGUACAUGAGGAUCACCCAUGUAGAAGGCGCGCCGC [Apr-15 SS2-18] (puzzle: Exclusion 2)” as the sequence, how does the “apparent KD of MS2 coat protein” value [1] read?
A: 14.9 nM

Q: “UCGGCGCGAGGAUAUACGUUUGCUUUUUUGUGUCGUUGCGUACAUGAGGAUCACCCAUGUAGAAGGCGCGCCGC [Apr-15 SS2-24] (puzzle: Exclusion 2)” was tested. Which “apparent KD of MS2 coat protein” value [1] did it give?
A: 16 nM

Q: Which “apparent KD of MS2 coat protein” value [1] does the source give for “UCGGCGCGAGGAUAUGCGGUUUGUGCUUCGGGCCCUCGCGUACAUGAGGAUCACCCAUGUAGAAGGCGCGCCGC [Apr-15 SS2-45] (puzzle: Exclusion 2)” here?
A: 75.2 nM

Q: For “UCGGCGCGAGGAUAUGCGGUUUGUGCUUUGGGCCCUGGCGUACAUGAGGAUCACCCAUGUAGAAGGCGCGUUGC [Apr-15 SS2-48] (puzzle: Exclusion 2)”, which “apparent KD of MS2 coat protein” value [1] is on record?
A: 17.1 nM

Q: What does the source list for “UCGGGUAGAGGAUAUACAUAGAAAUAGAUUCAUGUAAAACUACAUGAGGAUCACCCAUGUAGAAGGCUAUCCGU [Mat - Exclusion 2 - JL Mod - D56] (Eterna round: R97, puzzle: Exclusion 2)”?
A: apparent KD of MS2 coat protein (input ligand: FMN 200 uM): 164 nM; apparent KD of MS2 coat protein (input ligand: none): 27.2 nM

Q: Which results are given for “UCGUGAUUAGAGGAUAUAUUAAGAGUCAGAACAAUAGAAGGCUAAACAUGAGGAUCACCCAUGUAAAUGUGAAA [JR_Ex6_Sub060] (Eterna round: R97, puzzle: Exclusion 6)”?
A: apparent KD of MS2 coat protein (input ligand: FMN 200 uM): 172 nM; apparent KD of MS2 coat protein (input ligand: none): 35.5 nM

Q: What does the source list for “UCGUGAUUAGAGGAUAUAUUAAGGGUCAGAACAAUAGAAGGCUAAACAUGAGGAUCACCCAUGUAAAUGGUUUU [JR_Ex6_Sub058] (Eterna round: R97, puzzle: Exclusion 6)”?
A: apparent KD of MS2 coat protein (input ligand: FMN 200 uM): 183 nM; apparent KD of MS2 coat protein (input ligand: none): 70.7 nM

Q: “UCGUGAUUAGAGGAUAUAUUUUGAGUCAGAACAAUAGAAGGCUAAACAUGAGGAUCACCCAUGUAUAUGUGUAA [JR_Ex6_Sub062] (Eterna round: R97, puzzle: Exclusion 6)” was tested. Which “apparent KD of MS2 coat protein” value (input ligand: FMN 200 uM) did it give?
A: 140 nM

Q: What about the “apparent KD of MS2 coat protein” value (input ligand: none) of the same sequence?
A: 46.7 nM

Q: How did the “apparent KD of MS2 coat protein” value [1] turn out when “UCGUUUUUUGAGGAUAUGCGACGUUUUUUCGUCGUAGAAGGCGAUACAUGAGGAUCACCCAUGUUUAUGGGCAU [LRO-Ex6-15] (puzzle: Exclusion 6)” was run?
A: 148 nM

Q: “UCUAACCAUGUAGGAUAUGCGUGGCUAAGCUAUGCAGAAGGACAUGAGGAUCACCCAUGUGCCUCCGUCUGCGUACAGUCGGCU [EXclNG1-LROPPY01] (Eterna round: R96, puzzle: Exclusion NG 1)” was tested. Which “apparent KD of MS2 coat protein” value (input ligand: FMN 200 uM) did it give?
A: 15.5 nM

Q: What about the “apparent KD of MS2 coat protein” value [2] of the same sequence?
A: 11.2 nM

Q: And the “apparent KD of MS2 coat protein” value (input ligand: none)?
A: 18.5 nM

Q: What does the source list for “UCUCGCAGGCAAGGAUAUCCUACAUUGUUCUGGCCCGGGCAUGUUACAUGAGGAUCACCCAUGUGGGAGAAGGUGCGCCACGGC [Design 33] (Eterna round: R96, puzzle: Exclusion NG 2)”?
A: apparent KD of MS2 coat protein (input ligand: FMN 200 uM): 196 nM; apparent KD of MS2 coat protein [2]: 175 nM; apparent KD of MS2 coat protein (input ligand: none): 100 nM

Q: “UCUCGCGUCGAGGAUAUAUCGUGUAAGUGCGCGAUAGAAGGCGACACAUGAGGAUCACCCAUGUAGGGCCGAAC [Eternabot (Original) Solution 14] (Eterna round: R97, puzzle: Exclusion 6)” was tested. Which “apparent KD of MS2 coat protein” value (input ligand: FMN 200 uM) did it give?
A: 149 nM

Q: And the “apparent KD of MS2 coat protein” value (input ligand: none)?
A: 23.2 nM

Q: “UCUCGUAGGCAAGGAUAUCCUACAUUGUUCUGGCCCGGGCAUGCUACAUGAGGAUCACCCAUGUGGGAGAAGGUGCGCCACUGC [Design 27] (Eterna round: R96, puzzle: Exclusion NG 2)” was tested. Which “apparent KD of MS2 coat protein” value (input ligand: FMN 200 uM) did it give?
A: 52.4 nM

Q: And the “apparent KD of MS2 coat protein” value [2]?
A: 39.7 nM

Q: And the “apparent KD of MS2 coat protein” value (input ligand: none)?
A: 36.2 nM

From the supplement of paper PMC9170038
